Test [1] addresses human VLDLR LA3 fused to human IgG1 Fc (human) (UniProt P98155). Briefly: BLI. For orientation: In BLI a coated tip is dipped into the sample, and binding shifts an interference pattern.
The target of test [2] is human VLDLR LA1 fused to human IgG1 Fc (human) (UniProt P98155). The test is described as follows: BLI.
Test [3] has as its target human VLDLR LA5 fused to human IgG1 Fc (human) (UniProt P98155). Briefly: BLI.
Test [4] addresses human VLDLR LA2 fused to human IgG1 Fc (human) (UniProt P98155). Briefly: BLI.
For test [5], the target named is WEEV strain California virus-like particles (Western equine encephalitis virus, strain California). The test is described as follows: ELISA.
The target of test [6] is WEEV California E1 domain III fused to human IgG1 Fc (Western equine encephalitis virus, strain California). Briefly: BLI.

In the case of “WEEV strain California virus-like particles (complex)”, the Kd (usually a measure of binding affinity in units of concentration) in test [1] came to 6.09 nM; in test [2] it was 0.11 nM; in test [3], 0.37 nM; in test [4], 1.59 nM. Substance “human VLDLR LA1-2 fused to human IgG1 Fc (from UniProt P98155-1 28-113) (Fc fusion)” gave a Kd in test [5] of 1630 nM. The substance “human VLDLR LA1-3 fused to human IgG1 Fc (from UniProt P98155-1 28-152) (Fc fusion)” returned a Kd in test [5] of 470 nM. In test [5], “human VLDLR LA1-5 fused to human IgG1 Fc (from UniProt P98155-1 28-236) (Fc fusion)” displayed a dissociation constant Kd of 410 nM.

“human VLDLR LA3 fused to human IgG1 Fc (from UniProt P98155-1 111-151) (Fc fusion)” had a dissociation constant (Kd) in test [5] of 10900 nM. Against the preceding substance, the Kd is about 27-fold higher.

On to “human VLDLR LA3 with 6x His tag (from UniProt P98155-1 111-151) (domain or fragment)”, for which the dissociation constant (Kd) in test [6] is 830 nM. In other words, the sub-micromolar range. “human VLDLR LA5 fused to human IgG1 Fc (from UniProt P98155-1 191-236) (Fc fusion)”: the equilibrium dissociation constant (Kd) in test [5] amounted to 7770 nM. In other words, the single-digit micromolar range.

In turn, “human VLDLR LA5 with 6x His tag (from UniProt P98155-1 191-236) (domain or fragment)” yielded a Kd in test [6] of 808 nM. As to “human VLDLR ligand-binding domain (LA1-8) fused to human IgG1 Fc (from UniProt P98155-1 28-355) (Fc fusion)”, in test [5], the Kd was found to be 1210 nM. This counts as single-digit micromolar.

(Values after PMC12800238.)
